Results on 24 molecules are retold here after patent US8648041 (Novo Nordisk, dated 2014).

Numbered stars: 1 amine (or outer) side, 2 acyl side, 3 side chain; on linkers, the order of the positions; unused ones are H or OH. Square brackets hold non-standard residues; d marks the D form. Side chains are listed from the residue outwards. Ends that are not written are not given here. * marks the point of attachment. 9‑(4-carboxyphenoxy)nonanoyl = O=C(O)c1ccc(OCCCCCCCCC(=O)*)cc1; 8‑(4-carboxyphenoxy)octanoyl = O=C(O)c1ccc(OCCCCCCCC(=O)*)cc1; Malonyl(2,2-Me2,histaminyl) = CC(C)(C(=O)NCCc1cnc[nH]1)C(=O)*; Decanoyl(10-(4-HOOC-PhO)) = O=C(O)c1ccc(OCCCCCCCCCC(=O)*)cc1; γGlu = O=C(O)[C@H](CCC(=O)[*:2])N[*:1]; C14 diacid = O=C(O)CCCCCCCCCCCCC(=O)*; C12 diacid = O=C(O)CCCCCCCCCCC(=O)*; AEEA = NCCOCCOCC(=O)O; Aib = CC(C)(N)C(=O)O

For orientation: IC50 means the concentration at which inhibition is half-maximal. Higher therefore signals weaker potency in that assay.

Assay [1] deals with T1, human GLP-1 receptor (human, UniProt P43220 24-463).
T1 construct: whole, on cells; Used as membrane preparations of the transfected hamster (BHK) cell line, not as whole cells; also called hGLP-1/BHK 467-12A membranes
Description: SPA, displacement of 125I-GLP-1(7-36)NH2 from membranes with human GLP-1 receptor, 0.005% HSA. The source says:
(§1) A shift in the binding affinity, $IC50$, is an indication that the peptide in question binds to albumin, and thereby a prediction of a potential protracted pharmacokinetic profile of the peptide in question in animal models. Conditions Species (in vitro): Hamster Biological End Point: Receptor Binding Assay Method: SPA Receptor: GLP-1 receptor Cell Line: BHK tk-ts13 Cell Culture and Membrane Purification A stable transfected cell line and a high expressing clone were selected for screening. The cells were grown at 5% CO_2 in DMEM, 10% FCS, 1% Pen/Strep (Penicillin/Streptomycin) and 1.0 mg/ml of the selection marker G418.
(§2) 25 ul (micro liter) of test compounds were added to Optiplate. HSA ("high albumin" experiment containing 2% HSA), or buffer ("low albumin" experiment containing 0.005% HSA), was added (50 ul). 5-10 ug protein/sample was added (50 ul) corresponding to 0.1-0.2 mg protein/ml (to be preferably optimised for each membrane preparation). SPA-particles (Wheatgerm agglutinin SPA beads, Perkin Elmer, #RPNQ0001) were added in an amount of 0.5 mg/well (50 ul). […] The plates were sealed with PlateSealer and incubated for 120 minutes at 30° C. while shaking. The plates were centrifuged (1500 rpm, 10 min) and counted in Topcounter. Assay Buffer: 50 mM HEPES 5 mM EGTA 5 mM MgCl2 0.005% Tween™ 20 pH 7.4 HSA was SIGMA A1653.
A general note: In a radioligand displacement assay an active substance lowers the binding of a labelled ligand.

Assay [2] addresses T1, human GLP-1 receptor. The assay can be described thus: SPA, displacement of 125I-GLP-1(7-36)NH2 from membranes with human GLP-1 receptor, 2.0% HSA.
Excerpt: as §1, §2

B1: N^ε26-[2-[2-[2-[[2-[2-[2-[[(4S)-4-carboxy-4-[10-(4-carboxyphenoxy)decanoylamino]butanoyl]amino]ethoxy]ethoxy]acetyl]amino]ethoxy]ethoxy]acetyl], … (peptide)
peptide: HAEGTFTSDVSSYLEGQAAK([AEEA-AEEA-γGlu-Decanoyl(10-(4-HOOC-PhO))])EFIAWLVRGRK([AEEA-AEEA-γGlu-Decanoyl(10-(4-HOOC-PhO))])G
notes: the added Gly38 is therefore written as a second piece
In the case of B1, the IC50 was less than 600 nM with human GLP-1 receptor [1] and not above 1000 nM with human GLP-1 receptor [2].
The matching figures for HAEGTFTSDVSSYLEGQAAK([AEEA-AEEA-γGlu-Decanoyl(10-(4-HOOC-PhO))])EFIAWLVRGRK([AEEA-AEEA-γGlu-Decanoyl(10-(4-HOOC-PhO))])E (also called Chem. 65): less than 600 nM and not above 1000 nM.
The matching figures for HAEGTFTSDVSSYLEGQAAK([γGlu-AEEA-AEEA-C14 diacid])EFIAWLVRGRK([γGlu-AEEA-AEEA-C14 diacid]): less than 600 nM and not above 1000 nM.
Consider HAEGTFTSDVSSYLEGQAAK([AEEA-AEEA-γGlu-Decanoyl(10-(4-HOOC-PhO))])EFIAWLVRGRK([AEEA-AEEA-γGlu-Decanoyl(10-(4-HOOC-PhO))]), for which the IC50 with human GLP-1 receptor [1] was less than 600 nM; with human GLP-1 receptor [2], not above 1000 nM.
HAEGTFTSDVSSYLEGQAAK([AEEA-AEEA-γGlu-Decanoyl(10-(4-HOOC-PhO))])EFIEWLVRGRK([AEEA-AEEA-γGlu-Decanoyl(10-(4-HOOC-PhO))]): the figures for the IC50 with human GLP-1 receptor [1] and in the assay with human GLP-1 receptor [2] were less than 600 nM and not above 1000 nM, respectively.
The matching figures for HAQGTFTSDVSSYLEGQAAK([AEEA-AEEA-γGlu-Decanoyl(10-(4-HOOC-PhO))])EFIAWLVRGRK([AEEA-AEEA-γGlu-Decanoyl(10-(4-HOOC-PhO))]): less than 600 nM and not above 1000 nM.
On to HAEGTFTSDVSSYLEGQAAK([AEEA-AEEA-γGlu-C12 diacid])EFIAHLVQGRK([AEEA-AEEA-γGlu-C12 diacid]) (also called Chem. 54), for which the figures for the IC50 in the assay with human GLP-1 receptor [1] and in the assay with human GLP-1 receptor [2] were less than 600 nM and not above 1000 nM, respectively.
The matching figures for HAEGTFTSDVSSYLEGQAAK([AEEA-AEEA-γGlu-C14 diacid])EFIAHLVQGRK([AEEA-AEEA-γGlu-C14 diacid]) (also called Chem. 53): less than 600 nM and not above 1000 nM.
For HAEGTFTSDVSSYLEGQAAK([AEEA-AEEA-γGlu-Decanoyl(10-(4-HOOC-PhO))])EFIAHLVQGRK([AEEA-AEEA-γGlu-Decanoyl(10-(4-HOOC-PhO))]) (also called Chem. 52), the IC50 with human GLP-1 receptor [1] was less than 600 nM; with human GLP-1 receptor [2], not above 1000 nM.
The matching figures for HAEGTFTSDVSSYLEGQAAK([AEEA-AEEA-γGlu-Decanoyl(10-(4-HOOC-PhO))])EFIAWLVRGGK([AEEA-AEEA-γGlu-Decanoyl(10-(4-HOOC-PhO))]): less than 600 nM and not above 1000 nM.
Consider HAEGTFTSDVSSYLEGQAAK([AEEA-AEEA-γGlu-8‑(4-carboxyphenoxy)octanoyl])EFIAWLVRGGK([AEEA-AEEA-γGlu-8‑(4-carboxyphenoxy)octanoyl]), for which the IC50 with human GLP-1 receptor [1] was less than 600 nM; with human GLP-1 receptor [2], not above 1000 nM.
The matching figures for HAEGTFTSDVSSYLEGQAAK([γGlu-AEEA-AEEA-Decanoyl(10-(4-HOOC-PhO))])EFIAHLVQGRK([γGlu-AEEA-AEEA-Decanoyl(10-(4-HOOC-PhO))]) (also called Chem. 55): less than 600 nM and not above 1000 nM.

B2: N^9-{2-[2-(1H-Imidazol-4-yl)-ethylcarbamoyl]-2-methylpropionyl}-N^ε26-{2-[2-(2-{2-[2-(2-{(S)-4-[4-(4-tert-Butylphenyl)butyrylamino]-4-carboxybutyrylamino}ethoxy … (peptide)
peptide: {Malonyl(2,2-Me2,histaminyl)}-EGTFTSDVSSYLEGQAAKEFIAWLVRGRK
modifications: not fully specified (residues 18, 29); printed as N^9-{2-[2-(1H-Imidazol-4-yl)-ethylcarbamoyl]-2-methylpropionyl}-N^ε26-{2-[2-(2-{2-[2-(2-{(S)-4-[4-(4-tert-Butylphenyl)butyrylamino]-4-carboxybutyrylamino}ethoxy)ethoxy]acetylamino}ethoxy)ethoxy]acetyl}, N^ε37-{2-[2-(2-{2-[2-(2-{(S)-4-[4-(4-tert-Butylphenyl)butyrylamino]-4-carboxybutyrylamino}ethoxy)ethoxy]acetylamino}ethoxy)ethoxy]acetyl}[Arg^34, Lys^37]GLP-1(9-37)-peptide
notes: also called Chem. 46
As to B2, the IC50 with human GLP-1 receptor [1] was less than 600 nM; with human GLP-1 receptor [2], not above 1000 nM.
The matching figures for {Malonyl(2,2-Me2,histaminyl)}-EGTFTSDVSSYLEGQAAK([AEEA-AEEA-γGlu-Decanoyl(10-(4-HOOC-PhO))])EFIAWLVRGRK([AEEA-AEEA-γGlu-Decanoyl(10-(4-HOOC-PhO))]) (also called Chem. 42): less than 600 nM and not above 1000 nM.
The matching figures for {2,2‑dimethyl‑3‑oxo‑3‑(pyridin-2-ylmethylamino)propanoyl}-EGTFTSDVSSYLEGQAAK([AEEA-AEEA-γGlu-Decanoyl(10-(4-HOOC-PhO))])EFIAWLVRGRK([AEEA-AEEA-γGlu-Decanoyl(10-(4-HOOC-PhO))]) (also called Chem. 60) [N{9}-[2,2-dimethyl-3-oxo-3-(pyridin-2-ylmethylamino)propanoyl], …]: less than 600 nM and not above 1000 nM.
The matching figures for HAEGTFTSDVSSYLEGQAAK([AEEA-AEEA-γGlu-9‑(4-carboxyphenoxy)nonanoyl])EFIAWLVRGRK([AEEA-AEEA-γGlu-9‑(4-carboxyphenoxy)nonanoyl]): less than 600 nM and not above 1000 nM.
Consider HAEGTFTSDVSSYLEGQAAK([AEEA-AEEA-γGlu-8‑(4-carboxyphenoxy)octanoyl])EFIAWLVRGRK([AEEA-AEEA-γGlu-8‑(4-carboxyphenoxy)octanoyl]), for which the IC50 with human GLP-1 receptor [1] was less than 600 nM; with human GLP-1 receptor [2], not above 1000 nM.
In the case of {Malonyl(2,2-Me2,histaminyl)}-EGTFTSDVSSYLEGQAAK([AEEA-AEEA-γGlu-Decanoyl(10-(4-HOOC-PhO))])EFIAWLVRGRK([AEEA-AEEA-γGlu-Decanoyl(10-(4-HOOC-PhO))])E (also called Chem. 41) [N^9-{2-[2-(1H-Imidazol-4-yl)ethylcarbamoyl]-2-methylpropionyl}, …], the IC50 in the assay with human GLP-1 receptor [1] is less than 600 nM; in the assay with human GLP-1 receptor [2], not above 1000 nM.

B3: N^ε26-[2-[2-[2-[[2-[2-[2-[[(4S)-4-carboxy-4-[10-(4-carboxyphenoxy) decanoylamino]butanoyl]amino]ethoxy]ethoxy]acetyl]amino]ethoxy]ethoxy]acetyl], … (peptide)
peptide: XAEGTFTSDVSSYLEGQAAKEFIAWLVRGRK
modifications: Imp (imidazopropionic acid, des-amino histidine) at 7; Lys26 and Lys37 each acylated at the epsilon-amino group with 10-(4-carboxyphenoxy)decanoyl-gammaGlu-OEG-OEG (GLP-1(7-37) numbering)
On to B3, for which the IC50 with human GLP-1 receptor [1] is less than 600 nM; in the assay with human GLP-1 receptor [2], not above 1000 nM.
The matching figures for HAEGTFTSDVSSYLEGQAAK([AEEA-AEEA-γGlu-C14 diacid])EFIAWLVRGRK([AEEA-AEEA-γGlu-C14 diacid]): less than 600 nM and not above 1000 nM.

B4: N^ε26-[2-(2-[2-(2-[2-(2-[4-(10-(4-Carboxyphenoxy)decanoylamino)-4(S)-carboxybutyrylamino]ethoxy)ethoxy]acetylamino)ethoxy]ethoxy)acetyl]-N^ε37-[2-(2-[2-(2-[2-(2 … (peptide)
peptide: HXEGTFTSDVSSYLEGQAAKEFIAHLVQGRK
modifications: Aib at 8; Lys26 and Lys37 each acylated at the epsilon-amino group with 10-(4-carboxyphenoxy)decanoyl-gammaGlu-OEG-OEG (GLP-1(7-37) numbering, His = 7)
notes: also called Chem. 36
Turning to B4, the IC50 in the assay with human GLP-1 receptor [1] was less than 600 nM; with human GLP-1 receptor [2], not above 1000 nM.
For H[Aib]EGTFTSDVSSYLEGRAAK([AEEA-AEEA-γGlu-Decanoyl(10-(4-HOOC-PhO))])EFIAWLVRGRK([AEEA-AEEA-γGlu-Decanoyl(10-(4-HOOC-PhO))]), the values for the 50% inhibitory concentration (IC50) with human GLP-1 receptor [1] and with human GLP-1 receptor [2] were less than 600 nM and not above 1000 nM, respectively.

B5: N^ε26-[2-(2-{2-[2-(2-{2-[(S)-4-Carboxy-4-(11-carboxyundecanoylamino)butyrylamino]ethoxy}ethoxy)acetylamino]ethoxy}ethoxy)acetyl], … (peptide)
peptide: HXEGTFTSDVSSYLEGQAAKEFIAHLVQGRK
modifications: Aib at 8; Lys26 and Lys37 each acylated at the epsilon-amino group with 11-carboxyundecanoyl-gammaGlu-OEG-OEG (GLP-1(7-37) numbering, His = 7)
notes: also called Chem. 40
Consider B5, for which the IC50 is less than 600 nM with human GLP-1 receptor [1] and not above 1000 nM in the assay with human GLP-1 receptor [2].
In the case of H[Aib]GGTFTSDVSSYLEGQAAK([AEEA-AEEA-γGlu-Decanoyl(10-(4-HOOC-PhO))])EFIAWLVRGRK([AEEA-AEEA-γGlu-Decanoyl(10-(4-HOOC-PhO))]), the IC50 with human GLP-1 receptor [1] is less than 600 nM; with human GLP-1 receptor [2] it was not above 1000 nM.
